Results taken from patent publication US20150098945A1 (Daiichi Sankyo, published 2015).

Columns and labels:
[1] = target: T1, mouse ROBO4 (pCI-mROBO4-transfected HEK293 cells) (mouse, UniProt Q8C310 28-1012); experiment: flow cytometry on transfected HEK293 cells
T1 sequence: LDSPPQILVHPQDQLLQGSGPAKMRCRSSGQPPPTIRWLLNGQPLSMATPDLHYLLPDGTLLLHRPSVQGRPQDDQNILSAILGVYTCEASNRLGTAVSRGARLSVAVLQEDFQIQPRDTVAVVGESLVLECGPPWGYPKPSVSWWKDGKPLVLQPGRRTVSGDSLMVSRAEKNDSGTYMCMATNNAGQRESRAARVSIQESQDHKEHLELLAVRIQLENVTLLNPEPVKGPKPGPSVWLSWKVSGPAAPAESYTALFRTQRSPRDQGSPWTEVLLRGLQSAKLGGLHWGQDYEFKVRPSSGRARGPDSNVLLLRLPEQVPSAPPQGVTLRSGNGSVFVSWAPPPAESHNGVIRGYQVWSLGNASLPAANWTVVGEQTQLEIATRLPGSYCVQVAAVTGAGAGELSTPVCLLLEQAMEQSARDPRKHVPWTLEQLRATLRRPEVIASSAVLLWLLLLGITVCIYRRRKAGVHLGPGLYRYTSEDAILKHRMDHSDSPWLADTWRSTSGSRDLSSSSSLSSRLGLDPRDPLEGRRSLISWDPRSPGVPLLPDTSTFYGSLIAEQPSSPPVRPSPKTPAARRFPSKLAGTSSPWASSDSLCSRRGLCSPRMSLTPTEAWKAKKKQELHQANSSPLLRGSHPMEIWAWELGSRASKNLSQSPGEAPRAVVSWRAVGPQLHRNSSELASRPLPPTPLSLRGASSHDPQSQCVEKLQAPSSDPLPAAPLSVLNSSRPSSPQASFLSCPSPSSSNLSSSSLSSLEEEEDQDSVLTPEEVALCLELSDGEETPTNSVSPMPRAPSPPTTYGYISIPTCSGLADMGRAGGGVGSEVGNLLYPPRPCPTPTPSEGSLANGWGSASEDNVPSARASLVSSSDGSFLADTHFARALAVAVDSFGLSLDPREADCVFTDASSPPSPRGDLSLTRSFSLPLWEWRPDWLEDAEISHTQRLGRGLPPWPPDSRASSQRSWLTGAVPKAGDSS

[2] = target: T2, human ROBO3 (pCI-hROBO3-transfected HEK293 cells) (human, UniProt Q96MS0 21-1386); experiment: flow cytometry on transfected HEK293 cells
T2 sequence: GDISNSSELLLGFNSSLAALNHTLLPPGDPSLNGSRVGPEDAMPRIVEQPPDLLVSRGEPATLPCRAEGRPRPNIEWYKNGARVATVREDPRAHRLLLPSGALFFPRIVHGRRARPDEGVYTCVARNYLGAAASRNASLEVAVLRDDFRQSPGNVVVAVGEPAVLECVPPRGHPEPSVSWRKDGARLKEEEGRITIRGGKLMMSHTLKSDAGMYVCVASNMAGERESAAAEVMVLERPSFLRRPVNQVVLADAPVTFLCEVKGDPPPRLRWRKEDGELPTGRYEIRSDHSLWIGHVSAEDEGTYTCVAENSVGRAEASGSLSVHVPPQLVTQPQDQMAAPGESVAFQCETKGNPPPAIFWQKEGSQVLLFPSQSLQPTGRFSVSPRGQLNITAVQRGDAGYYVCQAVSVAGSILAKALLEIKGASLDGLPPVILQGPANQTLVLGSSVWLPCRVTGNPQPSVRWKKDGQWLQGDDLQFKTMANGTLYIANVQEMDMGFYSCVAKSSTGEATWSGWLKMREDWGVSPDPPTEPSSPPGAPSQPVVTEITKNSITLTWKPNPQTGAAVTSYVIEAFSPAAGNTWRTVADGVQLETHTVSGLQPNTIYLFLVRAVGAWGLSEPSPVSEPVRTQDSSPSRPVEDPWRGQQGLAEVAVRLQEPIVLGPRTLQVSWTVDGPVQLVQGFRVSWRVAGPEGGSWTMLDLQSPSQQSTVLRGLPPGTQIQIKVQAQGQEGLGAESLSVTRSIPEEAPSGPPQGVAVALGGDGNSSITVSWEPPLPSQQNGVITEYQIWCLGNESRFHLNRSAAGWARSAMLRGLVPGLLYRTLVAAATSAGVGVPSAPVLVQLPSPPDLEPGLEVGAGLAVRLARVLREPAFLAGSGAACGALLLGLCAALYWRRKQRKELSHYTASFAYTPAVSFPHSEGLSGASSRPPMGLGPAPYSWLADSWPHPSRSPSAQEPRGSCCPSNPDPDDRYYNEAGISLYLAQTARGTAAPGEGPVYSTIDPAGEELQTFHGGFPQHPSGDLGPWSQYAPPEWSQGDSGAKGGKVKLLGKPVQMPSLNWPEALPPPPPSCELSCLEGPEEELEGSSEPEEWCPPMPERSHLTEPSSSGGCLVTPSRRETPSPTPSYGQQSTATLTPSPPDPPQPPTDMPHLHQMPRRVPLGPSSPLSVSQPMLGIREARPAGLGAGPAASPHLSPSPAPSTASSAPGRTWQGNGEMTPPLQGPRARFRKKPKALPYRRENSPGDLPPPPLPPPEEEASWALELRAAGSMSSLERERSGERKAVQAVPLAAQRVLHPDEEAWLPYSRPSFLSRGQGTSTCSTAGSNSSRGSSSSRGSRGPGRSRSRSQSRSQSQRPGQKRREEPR

B1: humanized MAb1 antibody H-1140 (antibody, human IgG2, kappa, V domains shown)
VH: EVQLVESGGGLVQPGGSLRLSCAASGFTFSTYAMSWVRQAPGKGLEWVATISQGGTYTYYPDSVKGRFTISRDNAKNTLYLQMNSLRAEDTAVYYCARLIYYDYLDYWGQGTLVTVSS
VL: DIVMTQSPLSLPVTLGEPASISCRSSQSLENSNGNTYLNWYLQKPGQSPQLLIYRVSNRFSGVPDRFSGSGSGTDFTLKISRVEAEDVGVYYCLQVTHVPWTFGPGTKVDIKR
notes: Human IgG2 / kappa constant regions; also called hMAb1-H2-type heavy chain + hMAb1-L1-type light chain
- binding result [1]: no binding (tested: 10 µg/mL (method of 4)-3-2))
- binding result [2]: no binding (tested: 10 µg/mL (method of 4)-4-2))
